Read-outs that look alike come from different tables or passages of the source.

The data set deals with DNMT1 (Mus musculus) (UniProt P13864). The conditions noted are these: 5mC and 5hmC on top strand only, SAM, 37 C, 4 h.
UniProt P13864, sequence (P13864 other isoform, or with tags, fused parts or gaps): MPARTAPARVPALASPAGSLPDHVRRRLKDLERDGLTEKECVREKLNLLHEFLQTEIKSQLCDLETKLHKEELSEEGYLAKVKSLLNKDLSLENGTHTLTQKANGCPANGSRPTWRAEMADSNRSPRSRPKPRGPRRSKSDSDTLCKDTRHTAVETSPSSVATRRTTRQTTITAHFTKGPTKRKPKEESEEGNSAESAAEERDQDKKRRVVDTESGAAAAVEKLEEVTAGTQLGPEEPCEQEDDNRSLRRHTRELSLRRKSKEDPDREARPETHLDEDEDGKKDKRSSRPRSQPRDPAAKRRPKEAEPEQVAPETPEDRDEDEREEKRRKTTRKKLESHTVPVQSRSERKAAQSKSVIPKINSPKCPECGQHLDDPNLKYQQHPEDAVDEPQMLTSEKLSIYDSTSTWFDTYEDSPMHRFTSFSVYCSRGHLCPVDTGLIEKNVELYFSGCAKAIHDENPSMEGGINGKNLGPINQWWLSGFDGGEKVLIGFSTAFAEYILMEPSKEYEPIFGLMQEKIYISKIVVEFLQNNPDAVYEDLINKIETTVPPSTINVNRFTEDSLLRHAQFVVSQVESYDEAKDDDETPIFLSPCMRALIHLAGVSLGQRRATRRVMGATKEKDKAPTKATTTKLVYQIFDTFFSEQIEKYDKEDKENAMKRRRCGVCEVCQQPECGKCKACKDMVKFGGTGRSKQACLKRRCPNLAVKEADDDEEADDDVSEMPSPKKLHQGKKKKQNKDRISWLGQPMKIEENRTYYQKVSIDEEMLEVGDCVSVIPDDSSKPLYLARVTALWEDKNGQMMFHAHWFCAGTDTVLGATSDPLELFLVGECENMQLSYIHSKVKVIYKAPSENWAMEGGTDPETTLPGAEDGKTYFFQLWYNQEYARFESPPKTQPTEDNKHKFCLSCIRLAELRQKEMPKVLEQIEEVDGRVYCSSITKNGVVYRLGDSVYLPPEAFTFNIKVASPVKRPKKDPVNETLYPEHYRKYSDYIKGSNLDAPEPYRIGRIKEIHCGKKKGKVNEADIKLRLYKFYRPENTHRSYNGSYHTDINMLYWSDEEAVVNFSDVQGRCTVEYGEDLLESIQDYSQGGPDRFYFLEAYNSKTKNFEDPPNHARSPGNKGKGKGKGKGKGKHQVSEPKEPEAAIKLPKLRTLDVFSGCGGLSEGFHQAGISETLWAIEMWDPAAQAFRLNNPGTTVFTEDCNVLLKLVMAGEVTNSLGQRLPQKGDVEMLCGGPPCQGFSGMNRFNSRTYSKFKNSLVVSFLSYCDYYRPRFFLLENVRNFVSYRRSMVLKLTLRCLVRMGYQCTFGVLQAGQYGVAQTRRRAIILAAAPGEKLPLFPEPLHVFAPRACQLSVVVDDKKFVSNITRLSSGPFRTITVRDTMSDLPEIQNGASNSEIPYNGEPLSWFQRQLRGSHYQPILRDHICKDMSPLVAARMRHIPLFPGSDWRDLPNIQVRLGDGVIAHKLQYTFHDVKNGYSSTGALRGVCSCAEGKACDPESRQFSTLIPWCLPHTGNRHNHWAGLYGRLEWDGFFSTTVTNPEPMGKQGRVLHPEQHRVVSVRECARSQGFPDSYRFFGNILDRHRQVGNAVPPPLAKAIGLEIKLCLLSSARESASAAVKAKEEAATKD

For “112 bp 5hmC:C:5meC top/unmodified bottom duplex, hemi-5hmC CpG site”, where the note is “no methylation across from 5hmC”, the activity is 0%.

In the case of “112 bp 5hmC:C:5meC top/unmodified bottom duplex, hemi-5meC CpG site”, the activity (methylation by bisulfite sequencing (14 of 16 clones)) was found to be 87.5%.

With “112 bp 5hmC:C:5meC top/unmodified bottom duplex, unmodified CpG site”, the activity (no methylation by bisulfite sequencing) came out at 0%.

These data come from patent US10023909.
